According to patent US20210196796A1 (SYNTHEKINE, published 2021):
Changes are numbered by the printed parent chain. Names and notes keep the numbering of the source.

T1: orthogonal hCD122 receptor (hoRb), hCD122 with H133D and Y134F (human, UniProt P14784 27-550)
T1 sequence: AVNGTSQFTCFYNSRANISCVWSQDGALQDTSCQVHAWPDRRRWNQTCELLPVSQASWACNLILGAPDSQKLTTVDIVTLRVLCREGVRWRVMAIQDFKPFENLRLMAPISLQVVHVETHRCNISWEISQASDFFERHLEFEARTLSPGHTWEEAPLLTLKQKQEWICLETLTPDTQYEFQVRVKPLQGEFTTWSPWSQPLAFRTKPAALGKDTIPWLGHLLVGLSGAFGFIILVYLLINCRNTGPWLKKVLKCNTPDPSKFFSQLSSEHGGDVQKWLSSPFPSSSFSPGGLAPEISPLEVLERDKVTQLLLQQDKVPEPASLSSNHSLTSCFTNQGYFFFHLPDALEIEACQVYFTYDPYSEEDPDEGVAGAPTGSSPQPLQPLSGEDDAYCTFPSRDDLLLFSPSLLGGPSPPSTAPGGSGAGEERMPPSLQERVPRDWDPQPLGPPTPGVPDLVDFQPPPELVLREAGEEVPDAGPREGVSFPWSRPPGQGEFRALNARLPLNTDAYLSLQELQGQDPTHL

B1: L18W, SQVLKA (ligand)
chain: APTSSSTKKTQLQLSQLWVLLKAILNGINNYKNPKLTRMLTFKFYMPKKATELKHLQCLEEELKPLEEVLNLAQSKNFHLRPRDLISNINVIVLELKGSETTFMCEYADETATIVEFLNRWITFCQSIISTLT
B2: L18S, SQVLKA (ligand)
chain: B1 chain with W18S
B3: L18V, SQVLKA (ligand)
chain: B1 chain with W18V
B4: L18T, SQVLKA (ligand)
chain: B1 chain with W18T
B5: L18Y, SQVLKA (ligand)
chain: B1 chain with W18Y
B6: L18K, SQVLKA (ligand)
chain: B1 chain with W18K
B7: T3A, SQVLKA (ligand)
chain: B1 chain with T3A, W18L
B8: L18I, SQVLKA (ligand)
chain: B1 chain with W18I
B9: L18D, SQVLKA (ligand)
chain: B1 chain with W18D
B10: L18Q, SQVLKA (ligand)
chain: B1 chain with W18Q
B11: ΔL19, SQ_LKA (ligand)
chain: APTSSSTKKTQLQLSQLLLLKAILNGINNYKNPKLTRMLTFKFYMPKKATELKHLQCLEEELKPLEEVLNLAQSKNFHLRPRDLISNINVIVLELKGSETTFMCEYADETATIVEFLNRWITFCQSIISTLT

Biological target: T1, orthogonal hCD122 receptor (hoRb), …
Test: cell-based or functional assay
For Relative Proliferation Fold Change 3F8 1:10 in this document: reference of the scale not given here.
For Relative Proliferation Fold Change 3F8 1:2 in this document: reference of the scale not given here.
For Relative Proliferation Fold Change 3F8 1:50 in this document: reference of the scale not given here.
For Relative Proliferation Fold Change NKL 1:10 in this document: reference of the scale not given here.
For Relative Proliferation Fold Change NKL 1:2 in this document: reference of the scale not given here.
For Relative Proliferation Fold Change NKL 1:50 in this document: reference of the scale not given here.

Binder | 3F8 Ortho Proliferation Signal 1:2 [cts/min] | 3F8 Ortho Proliferation Signal 1:10 [cts/min] | 3F8 Ortho Proliferation Signal 1:50 [cts/min] | Relative Proliferation Fold Change 3F8 1:2 [fold] | Relative Proliferation Fold Change 3F8 1:10 [fold] | Relative Proliferation Fold Change 3F8 1:50 [fold]
B1 | 36800 | 32800 | 9570 | 138 | 43.1 | 12.7
B2 | 43300 | 48600 | 23600 | 185 | 89 | 41.9
B3 | 36500 | 29500 | 9920 | 139 | 19.2 | 12
B4 | 61100 | 51800 | 25700 | 2.05 | 6.27 | 13.8
B5 | 47600 | 51400 | 28200 | 214 | 101 | 64
B6 | 45400 | 42800 | 20400 | 162 | 49.6 | 14.6
B7 | 41400 | 39300 | 19500 | 17.1 | 11 | 8.68
B8 | 36900 | 37300 | 19400 | 81.2 | 29.8 | 11
B9 | 44000 | 49600 | 25200 | 92.5 | 81.3 | 28.4
B10 | 40800 | 57200 | 44700 | 111 | 80.8 | 47.2
B11 | 736 | 1070 | 1540 | 1.11 | 1.27 | 1.98

Biological target: T1, orthogonal hCD122 receptor (hoRb), …
Test: cell-based or functional assay
Remark: another data set of the same source

Binder | NKL Ortho Proliferation Signal 1:2 | NKL Ortho Proliferation Signal 1:10 | NKL Ortho Proliferation Signal 1:50 | Relative Proliferation Fold Change NKL 1:2 [fold] | Relative Proliferation Fold Change NKL 1:10 [fold] | Relative Proliferation Fold Change NKL 1:50 [fold]
B1 | 18700 | 17000 | 10700 | 1.56 | 1.1 | 0.71
B2 | 27200 | 21500 | 11500 | 2.4 | 1.56 | 0.85
B3 | 17800 | 14000 | 8670 | 1.36 | 0.96 | 0.62
B4 | 25000 | 20100 | 11300 | 2.37 | 1.49 | 0.87
B5 | 37300 | 27000 | 14800 | 3.34 | 2.09 | 1.19
B6 | 22200 | 20200 | 11500 | 1.56 | 1.21 | 0.76
B7 | 69100 | 79500 | 47000 | 3.91 | 4.22 | 2.67
B8 | 23800 | 20500 | 11000 | 2.05 | 1.38 | 0.8
B9 | 6380 | 8160 | 7460 | 0.6 | 0.59 | 0.56
B10 | 47500 | 41200 | 21400 | 3.93 | 2.5 | 1.41
B11 | 6440 | 9120 | 8470 | 0.49 | 0.62 | 0.59
